# Measurements from PMC7970865.
# “And” between values parts separate entries of the source, which are not always exact repeats. Equal values may be shown once.
# Assays:
# [1] = target: nearly full-length recombinant FL-CSP (Plasmodium falciparum) (UniProt Q7K740); test: BLI; Octet RED96; biotinylated FL-CSP or biotinylated NANPx6 on streptavidin biosensors, Fab in solution, kinetics buffer; global fit to 1:1 Langmuir model
# [2] = target: nearly full-length recombinant FL-CSP (Plasmodium falciparum) (UniProt Q7K740); test: ELISA
# [3] = target: nearly full-length recombinant FL-CSP (Plasmodium falciparum) (UniProt Q7K740); test: BLI; Octet RED384; FL-CSP amine-coupled to AR2G biosensors, bivalent mAb in solution, 1x kinetics buffer, 25 °C; 1:1 Langmuir model; mean of quadruplicate measurements
# [4] = target: nearly full-length recombinant P. falciparum circumsporozoite protein (FL-CSP) (Plasmodium falciparum) (UniProt Q7K740); test: BLI
substance,measurement,setting,value
Fab CIS43,Kd,[1],2 nM
same,koff,[1],4.8e-05 s⁻¹
same,kon,[1],28000 M⁻¹ s⁻¹
mAb CIS43 (antibody),ng/ml mAb needed for OD = 1,[2],< 6 ng/mL
same,Kd,[3],0.46 nM
same,koff,[3],0.000692 s⁻¹
same,kon,[3],1.5e+06 M⁻¹ s⁻¹
mAb CIS43 (intact human IgG1) (antibody),kon,[4],1.4e+06 1/(M s) (2×) and 1.7e+06 1/(M s) and 1.6e+06 1/(M s)
